In assay [1] the target is recombinant full-length murine eIF4E (murine) (UniProt P63073). Nature of the assay: SEC-MALS; static light scattering after 10 min of complex formation.
For assay [2] the target is unchanged. Nature of the assay: SEC-MALS; static light scattering on eIF4E/2A^proC106S complexes formed overnight.
Assay [3] concerns the target HRV2 2A^proC106S (human rhinovirus 2). Nature of the assay: SEC-MALS; Superdex 200 10/300 in assay buffer, miniDAWN light scattering instrument, 100 µg sample.
For assay [4], the target named is human eIF4GII residues 551–745 (human) (UniProt O43432). Nature of the assay: ITC; MicroCal ITC microcalorimeter; the ligand titrated into the protein in the cell (cell about 10× lower than titrant); 25°C; 20 mM Hepes/KOH pH 7.4, 150 mM KCl, 1 mM EDTA; three experiments.
Assay [5] addresses eIF4GII_(551–745)/eIF4E complex (human | murine) (UniProt O43432). The description is as above.
The target in assay [6] is recombinant full-length murine eIF4E (murine) (UniProt P63073). The description is as above.
Assay [7] has the same target. The assay is described as above. The source holds these as a separate data set.
Assay [8] deals with human eIF4GII residues 551–745 (human) (UniProt O43432). The description is as above. This is another data set of the same source.
For assay [9], the target named is eIF4GII_(551–745)/eIF4E complex (human | murine) (UniProt O43432). Nature of the assay: SEC-MALS; Superdex 200 10/300 in assay buffer, miniDAWN light scattering instrument, 100 µg sample.
Assay [10] addresses T1, recombinant full-length murine eIF4E (murine, UniProt P63073 1-217). Put plainly: ITC; MicroCal ITC microcalorimeter; the ligand titrated into the protein in the cell (cell about 10× lower than titrant); 25°C; 20 mM Hepes/KOH pH 7.4, 150 mM KCl, 1 mM EDTA; three experiments. To be noted: both partners purified.
Assay [11] addresses T1, recombinant full-length murine eIF4E. Nature of the assay: SEC-MALS; Superdex 200 10/300 in assay buffer, miniDAWN light scattering instrument, 100 µg sample. Particulars: both partners purified.

Here are results for four molecules from article PMC4815241 (Protein Science : A Publication of the Protein Society, 2015).

Read-outs that look alike come from different tables or passages of the source.

recombinant full-length murine eIF4E (murine), sequence (P63073 whole entry): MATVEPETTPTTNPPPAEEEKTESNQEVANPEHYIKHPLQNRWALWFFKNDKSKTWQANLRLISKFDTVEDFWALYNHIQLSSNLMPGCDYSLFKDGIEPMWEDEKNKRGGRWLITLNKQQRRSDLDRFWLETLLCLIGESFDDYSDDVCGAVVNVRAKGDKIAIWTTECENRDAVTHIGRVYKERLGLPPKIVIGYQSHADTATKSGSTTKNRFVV
T1 sequence (P63073 whole entry): as above

For the molecule “HRV2 2A^pro bearing the mutations C106S and C138S (enzyme)”, the stoichiometry N in [1] was 1.
HRV2 2A^proC106S (enzyme): the results for the stoichiometry N in assay [2] and in assay [3] were 1 and 2, respectively. The Kd in assay [4] turned out to be 75 µM; in [5], 5.1 µM; in assay [6], 12 µM; in assay [7], 8 µM; in [8], 86 µM.
The molecule “CVB4 2A^proC110A with a N-terminal extension of eight VP1 residues (enzyme)” returned a stoichiometry N in assay [9] of 1. In addition, the Kd in assay [4] and in assay [5] was 19 µM in each case.

B1: human eIF4GII residues 551–745 (domain or fragment, UniProt O43432 551-745, looked up)
chain: GFHPERDPSDLKKVKAVEENGEEAEPVRNGAESVSEGEGIDANSGSTDSSGDGVTFPFKPESWKPTDTEGKKQYDREFLLDFQFMPACIQKPEGLPPISDVVLDKINQPKLPMRTLDPRILPRGPDFTPAFADFGRQTPGGRGVPLLNVGSRRSQPGQRREPRKIITVSVKEDVHLKKAENAWKPSQKRDSQADD
On to B1, for which the Kd in assay [10] stood at 0.042 µM. For the same molecule, the “stoichiometry N” value in [11] came out at 1.
